Measured values as given in publication PMC5989791.

Molecular target: amatuximab, chimerized monoclonal IgG1 antibody targeting mesothelin (unlabelled) (human)
Assay: ELISA

percent decrease of CD16a binding to amatuximab: 50% | percent reduction of amatuximab binding to CD32a: 29%
Substance: CA125 tumor-shed antigen, soluble (sCA125), patient-derived (from UniProt Q8WXI7 1-14507) (natural protein)
